Data reported in a protein production outcome set (Wang et al. 2014).

Test: label from the status in PepcDB records

Row | Sequence | protein production
1 | MSKPPPKPVKPGQVKVFRALYTFEPRTPDELYFEEGDIIYITDMSDTSWWKGTCKGRTGLIPSNYVAEQAESIDNPLHEAAKRGNLSWLRECLDNRVGVNGLDKAGSTALYWACHGGHKDIVEVLFTQPNVELNQQNKLGDTALHAAAWKGYADIVQLLLAKGARTDLRNNEKKLALDMATNAACASLLKKKQQGTDGARTLSNAEDYLDDEDSD | failed
2 | MSKQLLALNIDGALLRSNGKIHQATKDAIEYVKKKGIYVTLVTNRHFRSAQKIAKSLKLDAKLITHSGAYIAEKIDAPFFEKRISDDHTFNIVQVLESYQCNIRLLHEKYSIGNKKKVNSNLLGKALIHPSDPIFYPVQFVESLSDLLMDEPVSAPVIEVYTEHDIQHDITETITKAFPAVDVIRVNDEKLNIVPKGVSKEAGLALVASELGLSMDDVVAIGHQYDDLPMIELAGLGVAMGNAVPEIKRKADWVTRSNDEQGVAYMMKEYFRMQQRKGFLDKFHMKRV | failed
3 | MSKRDYYQVLGVPRTASEDDLKKAYRRCAMKYHPDRNPGDAAAEAAFKECKEAYEVLADTKKRKLYDTHGHAAFEHGVGSGNTPDMNDIFGDIFGNIFGGARASRRGADVGYMVELDLEEAVAGVERQIQIPTLVECTHCHGSGSEDGHVETCGTCRGSGQVRIQRGIFAMQQTCPHCGGRGVIIRNPCKVCNGAGRVEDHKTLSVKIPAGVDNGDRIRLSGEGEQGPDGVPPGDLYVEVRVREHPIFQRDGDDLHCEVPVRISQAALGDIVRVATLDGEAEIRIPAETQSGKLFRLRGKGVRSVRSRTEGDLYCRIVVETPVNLTAEQRKLLEQFEMTFAGEDARKHSPKSATFLDGVKSFWDRMTS | failed
4 | MSKREDEGCARKRRTEAGQRSEDCMNPNSVVISAFKVFQQELDTRYDKYERLVKISRDVTIESKRTIFLLHRVASVPDVEEILNEAEVKLDGVRQKIGQIAEELRGEDLHQFHRAFTPGIQEYVEAVSFHHFIRHRSLISLEEINARLVFIRDNNKAVGEGTFSSPCVLTFQITPTDYLLGVADLTGELMRMCISSVGNGDMDTPFQLSGFLRQIHDGFSLIGNTGPYEVSKKLHALRQSLGKVEDACYTLRVRGSEIPKHMLADVFSSRAAHIDPDDAMA | not failed
5 | MSKVEQNAQHNIQQTSPNAAVQSGLQEWHRIIAEADWERLPDLLAEDVVFSNPSTFDPYHGKGPLMVILPAVFSVLENFQYARHFSSKSGYVLEFNANMGDELLTGVDLIEFNDAGKITDLVVMMRPASVVIDLSVEVGKRIAAAQS | not failed
6 | MSKVIFALVLVVVLVACINATYVEFEEAYAPVDCKGQCTTPCEPLTACKEKCAESCETSADKKTCRRNCKKADCEPQDKVCDACRMKCHKACRAANCASECPKHEHKSDTCRACMKTNCK | not failed
7 | MSKVLQISSAIPELDYANIPKEIIPFLASYNLIPQLLSQRIIESAIAPITCTQAEISHALDQFYQHWDLTTAEKIKDWCLRYGLNAEKLKLLATRKLRVEKFKQINWRHQLESYFLKRKKYLDRVIYSLIQTENKSVVNELFFRIAEGEDSFAELARKYSQGAEADRGGIIGPVELGSITPNFAQLLYTSQVGVVQPPVAFGNTWVIVRVEKLIPAQLDDFMRQRLLQENFEDWFQQQLNQLSPEEKIWMGINPKSDQVQEMA | failed
8 | MSKVRIAIIGNGMVGHRFIEELLDKAPAGQFDITVFCEEPRIAYDRVHLSSYFSHHTAEELSLVREGFYEKHGVKVLVGERAITINRQEKVIHSSAGRTVFYDKLIMATGSYPWIPPIKGAETQDCFVYRTIEDLNAIESCARRSKRGAVVGGGLLGLEAAGALKNLGVETHVIEFAPMLMAEQLDQMGGEQLRRKIESMGVKVHTSKNTKEIVQQGTEARKTMHFADGSELQVDFIVFSTGIRPRDKLATQCGLAVAQRGGIMVNDSCQTSDPDIYAIGECASWNNRVYGLVAPGYKMAQVAVDHLLGSENSFTGADLSAKLKLLGVDVGGIGDAHGRTPGARSYVYLDESKEVYKRLIVSADNKTLLGAVLVGDTSDYGNLLQLVLNAIELPENPDSLILPAHAGSGKPSIGVDKLPDSAQICSCFDVSKGDLIAAINKGCHTVAALKAETKAGTGCGGCIPLVTQVLNAELAKQGIEVNNNLCEHFAYSRQELFHLIRVEGIKTFDELLEKHGQGYGCEVCKPTVGSLLASCWNEYILKPQHTPLQDSNDNFLANIQKDGTYSVIPRSAGGEITPEGLVAVGRIAREFNLYTKITGSQRIGLFGAQKDDLPEIWRQLIEAGFETGHAYAKALRMAKTCVGSTWCRYGVGDSVGFGVELENRYKGIRTPHKMKFGVSGCTRECAEAQGKDVGIIATEKGWNLYVCGNGGMKPRHADLLAADLDRETLIKYLDRFMMFYIRTADKLTRTAPWLDNMEGGIDYLRSVIIDDKLGLNDHLEEELARLRAAFACEWTETVNNPAAQTRFKHFINSDQRDPNVQVVPERDQHRPATPYERIPVTLVEEKA | not failed
9 | MSKVRVAGFSVSVDGFGAGPEQSLNDPLGKRGPEMFQWFFHTRTFRAMMGKDDGSTGIDEDYASRAMANFGAFILGRNMFGPIRGEWPDDAWKGWWGPNPPYHAPTYVLTHYPREPLVMEGGTTFHFVTGGIHQALDQAKAAAGDKDVKIGGGVATVRQYLQAGLIDELHFAVSPVVLGKGEAMFAGIDLPALDFRVTEHAASEKATHIVLAKLEHHHHHH | failed
10 | MSLAEKIKVLIVDDQVTSRLLLGDALQQLGFKQITAAGDGEQGMKIMAQNPHHLVISDFNMPKMDGLGLLQAVRANPATKKAAFIILTAQGDRALVQKAAALGANNVLAKPFTIEKMKAAIEAVFGALK | not failed
11 | MSLAISITMETFYSLYPAVKHLHLTLIAVSVLFFVVRFVLHLRQSALMGKKVFKVAPHVIDTFLLLSGLVLCFMIKQYPFVDPWLTEKIGAVVAYIALGVIAIKANRNKLFKVFAFLGAIGWLVYAAKLAHFKQAVLLG | failed
12 | MSLALQYFKALSDETRLRLIHVLNRHELSVNELVSILEMGQSRVSRHLKILTGAGLLTSRRDGLWVFYSAAAEGDGRAFLDAVTPFVTTDMVLQADLDMAQKIIEERALKTRQFFNAIAEDWDELNREVLGGFDLAGAVAEAMPQCETAVDLGCGTGSVIERMLQRSQQVIGVDGSPRMLELARRRFVEGAERVSLRIGELDHLPLRDGEADFASINMVLHHLSDPGVALGEIRRVLRLGGQLMVTDFDRHDNERMRSDYGDRWLGFEGVQLEGLLREAGFTVRECRRQGVAKGLALHLMLAEKTQQ | failed
13 | MSLANQTTKTLGLVMPSSASKAFQNPFFPEVIRGISSFAHVEGYALYMSTGETEEEIFNGVVKMVQGRQIGGIILLYSRENDRIIQYLHEQNFPFVLIGKPYDRKDEITYVDNDNYTAAREVAEYLISLGHKQIAFIGGGSDLLVTRDRLAGMSDALKLADIVLPKEYILHFDFSRESGQQAVEELMGLQQPPTAIMATDDLIGLGVLSALSKKGFVVPKDVSIVSFNNALLSEIASPPLSTVDVNIYQLGYEAAKALVDKVENAESTAKCIIIPHKLLKRQTCEGHHHHHH | not failed
14 | MSLANRIRLHIWGDYACFTRPEMKVERVSYDVITPSAARGILSAIHWKPAINWVIDKIYVLKPIRFESVRRNELGAKISESKVSGAMKRKSVADLYTVIEDDRQQRAATVLKDVAYVIEAHAVMTSKAGVDENTTKHIEMFKRRALKGQCFQQPCMGVREFPAHFALIDDNDPLPLSQLSESEFNRDLGWMLHDIDFEHGNTPHFFRAELKNGVIDVPPFYAEEVKREGHHHHHH | not failed
15 | MSLAQADGIAFRELSFPEALKRAEVEDKLLFVDCFTTWCGPCKRLSKVVFKDSLVADYFNRHFVNLKMDMEKGEGVELRKKYGVHAYPTLLFINSSGEVVYRLVGAEDAPELLKKVKLGVESEGHHHHHH | not failed
16 | MSLCRLARKNIRTFATKRMKQFMWIAMSIMILFFMISLQFNEGAILKVGDAFVFQMYFYTLFIVLIFICIFTTYKMMYSLLLVRREEFTSYVAENIKRKEVLCLLCQEQLFIYGAAFVFGLVNGMLFLKLFTIIFIRIAGIQGINSAPITIYAIVVVSIIMIVILLLSMVQCFRFVQSLQDKNSLHFKKKA | failed
